Laboratory results as given in the RNAGym collection of RNA variant scans (doi:10.1073/pnas.2313332121).

B1: TPR t1 (parent)
chain: GACCAAUCUGCCCUCAGAGCUCGAGAACAUCUUCGGAUGCAGAGGAGGCAGGCUUCGGUGGCGCGAUAGCGCCAACGUCCUCAACCUCCAAUGCAUCCCACCACAUGAUGAUGCCUGAAGAGCCUUGGUUUUUUG

Variants of: B1
Experiment: polymerase ribozyme fitness, log enrichment relative to wild type (log ratio); higher = more active; in vitro selection for triplet polymerase activity
Method in brief: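 In triplicate, a single round of in vitro selection was run on each mutant library, PCR-built and transcribed, covering one subunit of a heterodimeric triplet polymerase ribozyme. Frozen incubation at −7 °C followed annealing with a biotinylated primer, partner subunit and triplets, and extended constructs were then gel-excised, streptavidin-captured and taken through RT-PCR. Fitness is the logarithm of genotype enrichment over wild-type enrichment, from inverse-variance-weighted replicate averages of Illumina-sequenced inputs and outputs. […] only genotypes with ≥10 input reads and ≥1 read per output were kept.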

In order of rising “polymerase ribozyme fitness (log ratio)” value:
1. A43C C53A A95U U109A U130G  -7.32
2. C11U A27G C86U C115U  -7.32
3. A24G A50C G63U A118U G122A  -7.26
4. C22A U33C C49U C79A C123G  -7.05
5. A43U C49A G51C C56G G63C U106A  -7.03
6. A29G C97U C101A A103U G120A U133G  -7
7. G71U C80G G107U G117A  -6.69
8. G60C C94G U96A A103C  -6.59
9. G44C C80A G110U C124A  -6.53
10. C15A A46C G52C A91U U129G  -6.42
11. U9G G42C A103G C124A  -6.09
12. A90G C101G G113A G117C  -5.96
13. G45C G47A C79G  -5.96
14. C28A G127C  -5.95
15. A26G C72G A100C C115U G128A  -5.88
16. U14G C15U C49G G58A U78C  -5.83
17. G19A G61C C73U C89A C114U U131G  -5.3
18. G35A U129A  -5.19
19. C22G A29U G120U U133A  -5.17
20. G107A  -4.86
21. U32A G44A G63C U87C  -4.85
22. G44A A66U C76A  -4.64
23. A27C A46C C56G  -4.61
24. C13U C28A G47U  -4.54
25. G48C G113U C123A  -4.5
26. G39C G48U A111U  -4.49
27. G10U C40G G44C A111C  -4.09
28. C73G C82A U92A  -4.06
29. C40U C70A C102A C124A  -3.93
30. C15G U32C C49U U87G  -3.89
31. C3G G10U G39U C72U C85U  -3.78
32. C15U C20A C72U C86U  -3.76
33. C12G C62G C115U  -3.7
34. U126G U130G  -3.64
35. C3U C22U  -3.6
36. A26G C34A G44A C124U  -3.54
37. U55G A66U A83U  -3.53
38. G39C G69A  -3.44
39. G39U A43C C49A  -3.34
40. U14C C70G C82U U106A  -3.34
41. A6G C8U C49G C70A U78C  -3.15
42. A103G C124U  -3.1
43. G45A G48U G93A  -3.09
44. G10C G63A C80U  -3.07
45. C62G C115U  -2.93
46. A46U C114A  -2.92
47. A5G U78C C80A  -2.8
48. U14A G71A  -2.77
49. A6U A27G C82U G110U  -2.67
50. C15U A41G G52U C62U A119U  -2.59
51. C40G A50U G61A C79U C85G G117U A121U U134A  -2.53
52. G47A C70A C82G  -2.41
53. C13U G39C C88U C102U C104A G113A  -2.3
54. G42U G93C  -2.17
55. C12A C70A C80U  -2.16
56. A6G G48A G71C G117A  -2.1
57. A6U A66G C85G  -2.09
58. C72U G93U C115U  -2.06
59. A5G C13U G44U U96G U133A  -2.01
60. G71A U129A  -1.76
61. G47A G48A  -1.62
62. A29G G71U A83U  -1.51
63. C49U U129A  -1.47
64. U78C G122A  -1.22
65. G39C G71A  -1.21
66. A66G C76G  -1.2
67. C3A A111C  -1.17
68. C73U A95C  -1.16
69. C4A A74G  -1.14
70. G69U A74U C80U  -0.977
71. A41U C72U A83U U87G U92A  -0.865
72. G39A C70U A118G G122A  -0.719
73. C82U C86U G110A U133C  -0.604
74. C3U U9C C88G U116C  -0.482
75. C56U C94A  -0.478
76. C12A  -0.413
77. C73U G93A  -0.23
78. G10A U106C  -0.101
79. U7C C13G  0.00167
80. A5G C12G G71C A121G  0.0981
81. U9C C73A A74U  0.19
82. U112A G122U U129C  0.27
83. C3U G10A  0.634
84. C8A G57C C64U C123U U129A U133G  1.06
